Test results from paper PMC7530648 (2020).
No end group written: not given here.

Molecular target: T1, S8-meSRK (S8-SRK ectodomain containing 11 mutations), purified, tags removed (Brassica rapa, three sugar chains (seen in the crystal structure))
T1 chain: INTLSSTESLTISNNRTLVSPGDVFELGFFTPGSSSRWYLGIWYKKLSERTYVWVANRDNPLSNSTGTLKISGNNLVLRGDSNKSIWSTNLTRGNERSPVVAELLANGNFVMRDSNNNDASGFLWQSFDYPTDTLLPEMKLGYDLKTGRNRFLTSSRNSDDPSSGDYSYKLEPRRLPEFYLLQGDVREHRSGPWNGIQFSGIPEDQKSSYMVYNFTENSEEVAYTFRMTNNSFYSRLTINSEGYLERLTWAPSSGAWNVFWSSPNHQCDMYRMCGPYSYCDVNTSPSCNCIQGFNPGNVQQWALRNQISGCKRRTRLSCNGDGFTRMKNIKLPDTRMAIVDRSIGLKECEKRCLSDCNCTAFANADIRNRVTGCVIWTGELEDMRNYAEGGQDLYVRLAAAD
Test: ITC

B1: biotin-S8-SP11, chemically synthesized (ligand)
chain: NLMKRCTRGFRKLGKCTTLEEEKCKTLYPRGQCTCSDSKMNTHSCDCKSC
modifications: not fully specified; cysteine pairing not given here; also: biotin-S8 (position not given here)
  Kd: 20.2 nM
